Experimental data reported in IntAct's records for PubMed 25232744.

B1: Forkhead box protein P2 (Homo sapiens), O15409-1 (parent)
chain: MMQESATETISNSSMNQNGMSTLSSQLDAGSRDGRSSGDTSSEVSTVELLHLQQQQALQAARQLLLQQQTSGLKSPKSSDKQRPLQVPVSVAMMTPQVITPQQMQQILQQQVLSPQQLQALLQQQQAVMLQQQQLQEFYKKQQEQLHLQLLQQQQQQQQQQQQQQQQQQQQQQQQQQQQQQQQQQQQQQQQHPGKQAKEQQQQQQQQQQLAAQQLVFQQQLLQMQQLQQQQHLLSLQRQGLISIPPGQAALPVQSLPQAGLSPAEIQQLWKEVTGVHSMEDNGIKHGGLDLTTNNSSSTTSSNTSKASPPITHHSIVNGQSSVLSARRDSSSHEETGASHTLYGHGVCKWPGCESICEDFGQFLKHLNNEHALDDRSTAQCRVQMQVVQQLEIQLSKERERLQAMMTHLHMRPSEPKPSPKPLNLVSSVTMSKNMLETSPQSLPQTPTTPTAPVTPITQGPSVITPASVPNVGAIRRRHSDKYNIPMSSEIAPNYEFYKNADVRPPFTYATLIRQAIMESSDRQLTLNEIYSWFTRTFAYFRRNAATWKNAVRHNLSLHKCFVRVENVKGAVWTVDEVEYQKRRSQKITGSPTLVKNIPTSLGYGAALNASLQAALAESSLPLLSNPGLINNASSGLLQAVHEDLNGSLDHIDSNGNSSPGCSPQPHIHSIHVKEEPVIAEDEDCPMSLVTTANHSPELEDDREIEEEPLSEDLE
partner: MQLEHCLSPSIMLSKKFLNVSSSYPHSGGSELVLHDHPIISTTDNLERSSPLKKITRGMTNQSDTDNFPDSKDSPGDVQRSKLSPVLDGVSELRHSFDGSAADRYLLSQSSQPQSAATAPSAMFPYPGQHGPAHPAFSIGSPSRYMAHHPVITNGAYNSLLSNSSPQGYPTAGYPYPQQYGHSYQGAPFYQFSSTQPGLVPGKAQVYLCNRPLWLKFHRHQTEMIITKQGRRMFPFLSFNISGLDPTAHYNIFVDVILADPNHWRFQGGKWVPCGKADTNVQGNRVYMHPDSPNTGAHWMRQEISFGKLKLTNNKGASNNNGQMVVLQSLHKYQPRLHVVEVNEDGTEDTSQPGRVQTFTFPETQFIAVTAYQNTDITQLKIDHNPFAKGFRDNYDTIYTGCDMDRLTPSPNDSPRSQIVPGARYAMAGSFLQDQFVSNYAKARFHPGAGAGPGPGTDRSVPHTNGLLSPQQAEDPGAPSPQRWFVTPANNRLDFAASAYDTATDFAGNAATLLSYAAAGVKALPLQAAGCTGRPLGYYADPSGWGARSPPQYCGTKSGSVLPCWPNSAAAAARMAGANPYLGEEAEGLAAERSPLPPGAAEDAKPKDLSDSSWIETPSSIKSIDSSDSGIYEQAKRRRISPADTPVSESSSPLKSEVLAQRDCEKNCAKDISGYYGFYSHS
B2: T-box brain protein 1 (Homo sapiens), Q16650 (parent)
chain: B1 partner

Variants of: B1
Conditions: with tbr1_human TBR1, Q16650

Variant	effect of a mutation on the interaction
R553H	decreasing interaction strength

Variants of: B2
Conditions: with FOXP2, O15409-1

Variant	effect of a mutation on the interaction
V356M	decreasing interaction strength
N374H	disrupting interaction strength
K228E	disrupting interaction strength
Q178E	decreasing interaction strength

Continued, values first:

effect of a mutation on the interaction	Variant
decreasing interaction strength	P542R
disrupting interaction strength	Q418R
